Assay: label from the status in PepcDB records

Row | Sequence | protein production
1 | MRASSSQGTPMNTALHDNREVVTVCLQHKVLDGSPGTPAAQPPRWKQALLTYLVICPMTMVIPQLLAPLFARFPQLGGVITGNLIVNLFVILPVVFYIMPWVTRRCANWLRG | failed
2 | MRCPGCGAAIQFDDPKKPGYIPREVFEKRLEEGKEILCQRCFRMKHYGKLEPVEFDWDFKNQLKSYLGGFDVVVWVIDIFDFEGTYREDIAEILKGKRVIYVINKIDLLPRAVTVKEIKEWVKKRIKTKNTDDIRIVSAEKNFGLTSLVKYLSRLTDKALVVGVTNVGKSSLLNKICTHENTISPFPGTTLGILKRKVKEANLYLYDTPGIMTSDRILDLLDPECQKRVLPREELSRKTFKPDNGRTIFMGGLCRFDIHFETEKNPIFLLFSSKEVTFHETRRERADELMRNRLGDLLIPPCSKTKFENFKWKRETFTLKEGEELAVAGLGWMSVRRGPFTVEVTVPDSVKLVVREALVNPKRLEHHHHHH | not failed
3 | MRCTRLEARRMLSHINENQQPQMVDISEKAVSDRRAVAEALIELPPVFQAYVQGGDLFLKKGPVVQTAIIAGTMAVKRTAEVIPFCHPLPITSCRFETDIESQESGLRIRLRCEVKTCDRTGVEMESLHGVAIAALTIYDMAKALSPHIVIREVRLLAKSGGKKTLGQYPLYGLVLTGGQSQRMGQAKALLDYYGEPHAQYLYNLLAQSCEQVFLSAQPNQWQGTPLADLPTLPDILPQIGPIAGILTALRAYPQVNWLVVACDLPYLTTETLAPLLHHYREDVVATCYHHPQEGFPEPLCAIYTPQALPVFEAAYAEGIYCPVKILQRSPCQRIAPPQPTITANINTPEEYHEALHHVRRP | failed
4 | MRDFLKLLKKHDELKIIDTPLEVDLEIAHLAYIEAKKPNGGKALLFTQPIRKEHDQIKTFGMPVLMNAFGSFKRLDLLLKTPIESLQQRMQAFLHFNAPKNFTEGLKVLKDLWDLRHIFPKKTTRPKDLIIKQDKEVNLLDLPVLKTWEKDGGAFITMGQVYTQSLDHQKKNLGMYRLQVYDKNHLGLHWQIHKDSQLFFHEYAKAKVKMPVSIAIGGDLLYTWCATAPLPYGIYELMLYGFMRGKKARVMPCLSNSLSVPSDCDIVIEGFVDCEKLELEGPFGDHTGYYTPIEPYPVLEVKTISYKKDSIYLATVVGKPPLEDKYMGYLTERLFLPLLQMNAPNLIEYYMPENGVFHNLILAKIHTRYNAHAKQVMHAFWGVGQMSFVKHAIFVNEDAPNLRDTNAIIEYILENFSKENALISQGVCDALDHASPEYAMGGKLGIDATSKSNTPYPTLLNDSALLALLQDKMQNIVLLKQYYPHTRNPICVISVEKKDKSVIELAKNLLGFEEHLRIVIFVEHASNDLNNPYMLLWRIVNNIDARRDILTSKHCFFIDATNKGVMDKHFREWPTETNCSMEVIENLKKKGLLKDFETLNQKFHLTHSFSTHKEDL | failed
5 | MRDHVEIGIGREARRTYSLDDISVVSSRRTRSSKDVDTTWHIDAYKFDLPFMNHPSDALASPEFVIEMGKQGGLGVINAEGLWGRHADLDEAIAKVIAAYEEGDQAAATRTLQELHAAPLDTELLSERIAQVRDSGEIVAVRVSPQNVREIAPIVIKAGADLLVIQGTLISAEHVNTGGEALNLKEFIGSLDVPVIAGGVNDYTTALHMMRTGAVGIIVGGGENTNSLALGMEVSMATAIADVAAARRDYLDETGGRYVHIIADGSIENSGDVVKAIACGADAVVLGSPLARAEEAAGKGYFWPAVAAHPRFPRGVVTESVDLDEAAPSLEQILHGPSTMPWGVENFEGGLKRALAKCGYTDLKSFQKVSLHVN | not failed
6 | MRDIPLLIPILLILFVSLGLARVKTILVVGAFSLFFVYGYLKGENIGTPRRRIEVNDDVFSVMLILSVIIILIQIANLRGIPLLHPHLRTHLNPKLTGLTYFLGLPSSVYLIIRGKKLGFLYPLMVALYAYRTPVLVALIALTLPYLEDMKKGKKAVEIGVIGIFLLFLISYFRGSLSFLTRIQGTTSVLDVIVKRCSVVGFYKGELQLAGVKSYIFGGLGPRTMIARYLGIPGVTITATLIGGMYLDFGLLSSLEMLLLGFYYGIMKKLRSDVGRSFYYSTLSYGIVGVETGILDLPVYLMILVGLLIAWREFDGNLRKDIRRIISWISSSSNNW | failed
7 | MREEQVSDCGSITLEEWNGSSSTKLFKTATITASSSLSIQRSANRFNHVWRRVLQAFVPEASGFPGSVTPDYVGFQLWDTLQGLSTYTKMMLSTQALLSAIGVGEKSATVIGATFQWFLRDFTGMLGGILFTFYQGSNLDSNAKMWRLVADLMNDIAGVASGATRAALTQHFALQDNAADISAKEGSQETMATMMGMSLGMLLARFTSGNPMAIWLSFLSLTVFHMYVLSPEQVSSMEGVLPLWATSLRSTNSKPLHKRVQLGVRVSSLPRLDMLQLLNGVGASSYKNAKYLLAHIKGNVSVILHKDSKPADVLKSYIHAIVLANLMEKSTSFYSEGEAWIDKHYDELLHKVRLNH | failed
